Where two headings read alike, the source gives them in different places.
T1: 4H3414-AA
T1 chain: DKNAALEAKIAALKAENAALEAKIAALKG

T2: 4H2961-AA
T2 chain: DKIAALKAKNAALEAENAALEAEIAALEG

T3: 4H2699-AA
T3 chain: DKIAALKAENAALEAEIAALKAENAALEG

T4: 4H341-AA
T4 chain: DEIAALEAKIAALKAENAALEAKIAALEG

T5: 4H3969-AA
T5 chain: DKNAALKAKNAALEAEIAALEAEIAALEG

T6: 4H3782-AA
T6 chain: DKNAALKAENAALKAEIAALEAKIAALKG

T7: 4H3939-AA
T7 chain: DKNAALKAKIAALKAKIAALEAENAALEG

T8: 4H464-AA
T8 chain: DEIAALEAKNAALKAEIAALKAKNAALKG

T9: 4H3129-AA
T9 chain: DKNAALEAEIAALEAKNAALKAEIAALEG

T10: 4H63-AA
T10 chain: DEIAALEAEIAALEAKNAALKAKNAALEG

T11: 4H380-AA
T11 chain: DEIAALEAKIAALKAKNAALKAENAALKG

T12: 4H2903-AA
T12 chain: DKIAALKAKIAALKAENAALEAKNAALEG

T13: 4H446-AA
T13 chain: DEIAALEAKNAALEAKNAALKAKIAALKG

T14: 4H2774-AA
T14 chain: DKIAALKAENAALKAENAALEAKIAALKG

T15: 4H3049-AA
T15 chain: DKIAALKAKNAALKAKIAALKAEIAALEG

T16: 4H3629-AA
T16 chain: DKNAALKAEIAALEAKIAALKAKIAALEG

T17: 4H2728-AA
T17 chain: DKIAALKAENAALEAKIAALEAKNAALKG

T18: 4H3595-AA
T18 chain: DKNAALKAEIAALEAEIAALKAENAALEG

T19: 4H483-AA
T19 chain: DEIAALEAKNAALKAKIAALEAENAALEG

T20: 4H2621-AA
T20 chain: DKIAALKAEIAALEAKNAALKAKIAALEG

T21: 4H3449-AA
T21 chain: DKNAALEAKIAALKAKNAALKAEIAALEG

T22: 4H324-AA
T22 chain: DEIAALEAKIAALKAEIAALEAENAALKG

T23: 4H3777-AA
T23 chain: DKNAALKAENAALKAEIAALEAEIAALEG

T24: 4H432-AA
T24 chain: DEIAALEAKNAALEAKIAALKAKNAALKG

T25: 4H2947-AA
T25 chain: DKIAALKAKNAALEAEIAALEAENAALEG

T26: 4H3619-AA
T26 chain: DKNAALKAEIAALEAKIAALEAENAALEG

T27: 4H3094-AA
T27 chain: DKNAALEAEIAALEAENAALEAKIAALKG

T28: 4H2760-AA
T28 chain: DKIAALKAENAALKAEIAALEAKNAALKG

T29: 4H3974-AA
T29 chain: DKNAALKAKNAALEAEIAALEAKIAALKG

T30: 4H3915-AA
T30 chain: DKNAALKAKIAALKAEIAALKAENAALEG

T31: 4H2580-AA
T31 chain: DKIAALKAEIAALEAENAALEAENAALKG

T32: 4H2604-AA
T32 chain: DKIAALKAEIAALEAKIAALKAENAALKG


Tests used:
Experiment in all cases: two-hybrid library CCmax;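 also: natural log of median RNA to DNA barcode read ratio; higher means stronger binding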
4H3414-AA = target: T1, 4H3414-AA; conditions: mean of both orientations
4H2961-AA = target: T2, 4H2961-AA; conditions: mean of both orientations
4H2699-AA = target: T3, 4H2699-AA
4H341-AA = target: T4, 4H341-AA; conditions: mean of both orientations
4H3969-AA = target: T5, 4H3969-AA; conditions: mean of both orientations
4H3782-AA = target: T6, 4H3782-AA; conditions: mean of both orientations
4H3939-AA = target: T7, 4H3939-AA; conditions: mean of both orientations
4H464-AA = target: T8, 4H464-AA; conditions: mean of both orientations
4H3129-AA = target: T9, 4H3129-AA
4H63-AA = target: T10, 4H63-AA; conditions: mean of both orientations
4H380-AA = target: T11, 4H380-AA; conditions: mean of both orientations
4H2903-AA = target: T12, 4H2903-AA; conditions: mean of both orientations
4H446-AA = target: T13, 4H446-AA; conditions: mean of both orientations
4H2774-AA = target: T14, 4H2774-AA; conditions: mean of both orientations
4H3049-AA = target: T15, 4H3049-AA; conditions: mean of both orientations
4H3629-AA = target: T16, 4H3629-AA; conditions: mean of both orientations
4H2728-AA = target: T17, 4H2728-AA; conditions: mean of both orientations
4H3595-AA = target: T18, 4H3595-AA; conditions: mean of both orientations
4H483-AA = target: T19, 4H483-AA; conditions: mean of both orientations
4H2621-AA = target: T20, 4H2621-AA
4H3449-AA = target: T21, 4H3449-AA; conditions: mean of both orientations
4H324-AA = target: T22, 4H324-AA; conditions: mean of both orientations
4H3777-AA = target: T23, 4H3777-AA; conditions: mean of both orientations
4H432-AA = target: T24, 4H432-AA; conditions: mean of both orientations
4H2947-AA = target: T25, 4H2947-AA; conditions: mean of both orientations
4H3619-AA = target: T26, 4H3619-AA; conditions: mean of both orientations
4H3094-AA = target: T27, 4H3094-AA; conditions: mean of both orientations
4H2760-AA = target: T28, 4H2760-AA; conditions: mean of both orientations
4H3974-AA = target: T29, 4H3974-AA; conditions: mean of both orientations
4H3915-AA = target: T30, 4H3915-AA; conditions: mean of both orientations
4H2580-AA = target: T31, 4H2580-AA
4H2604-AA = target: T32, 4H2604-AA; conditions: mean of both orientations

Binder | interaction score (4H3414-AA) | interaction score (4H2961-AA) | interaction score (4H341-AA) | interaction score (4H3969-AA) | interaction score (4H3782-AA) | interaction score (4H3939-AA) | interaction score (4H464-AA) | interaction score (4H3129-AA; mean of both orientations) | interaction score (4H63-AA) | interaction score (4H380-AA) | interaction score (4H2903-AA) | interaction score (4H446-AA) | interaction score (4H2774-AA) | interaction score (4H3049-AA) | interaction score (4H3629-AA) | interaction score (4H2728-AA) | interaction score (4H3595-AA) | interaction score (4H483-AA) | interaction score (4H2699-AA; mean of both orientations) | interaction score (4H3449-AA) | further results
DKIAALKAENAALEAEIAALKAENAALEG [4H2699-AA] | -0.748 | -1.89 | -1.58 | -1.41 | -0.882 | -1.77 | 2.17 | 1.24 | -1.27 | -1.08 | -1.69 | -1.2 | -1.26 | 0.526 | -0.9 | -0.707 | -1.96 | 0.687 | – | – | interaction score (4H2699-AA): -1.06
DKIAALKAEIAALEAKNAALKAKIAALEG [4H2621-AA] | 2.21 | -0.217 | 2.39 | -1.35 | -1.63 | -0.531 | -1.44 | – | -0.787 | -0.998 | 1.71 | -1.41 | -0.116 | 0.214 | 0.71 | 1.6 | 0.312 | -1.55 | -0.173 | -0.832 | interaction score (4H2621-AA): 1.1; interaction score (4H324-AA): 1.33; interaction score (4H3777-AA): -1.64; interaction score (4H3129-AA): -1.64; interaction score (4H432-AA): -1.5; interaction score (4H2947-AA): -1.47; interaction score (4H3619-AA): 0.162; interaction score (4H3094-AA): 1.09; interaction score (4H2760-AA): -0.432; interaction score (4H3974-AA): -0.826; interaction score (4H3915-AA): -1.18
DKIAALKAEIAALEAENAALEAENAALKG [4H2580-AA] | -1.09 | -1.82 | 0.477 | -1.28 | -1.52 | -0.303 | -0.738 | -1.21 | 0.964 | 1.77 | -0.221 | -1.11 | -1.28 | -0.107 | -0.787 | -1.69 | -1.29 | -1.33 | -1.81 | 0.308 | interaction score (4H2621-AA; mean of both orientations): -0.357; interaction score (4H324-AA): 1.93; interaction score (4H2580-AA): 0.179; interaction score (4H3777-AA): -1.49; interaction score (4H432-AA): -1.04; interaction score (4H2947-AA): -1.82; interaction score (4H3619-AA): -1.26; interaction score (4H2604-AA): 1.41; interaction score (4H3094-AA): -1.36; interaction score (4H2760-AA): -1.47; interaction score (4H3974-AA): -1.2; interaction score (4H3915-AA): -0.741
